For the test, the target named is sapC-PUMA (protein chimera of saposin C and the BH3 domain of PUMA). Nature of the test: NMR titration.

Where only a bound is given, the exact number is not on record here.

Usually Kd stands for a measure of binding affinity in units of concentration. Higher therefore signals weaker binding. By koff is commonly meant the first-order rate constant of dissociation. As a reminder, the stoichiometry N is a count of units in the complex or per binding partner. As to “Bcl-xL-ΔTM (Bcl-xL without the transmembrane domain) (domain or fragment)”, the dissociation constant (Kd) is < 310 nM, the koff was < 310 s⁻¹ and the stoichiometry N stood at 1.

Values taken from paper doi:10.1101/2020.07.24.219675.
